The values that follow come from article PMC3835729.

The data set relates to Nc1ncnc2c1ncn2[C@@H]1O[C@H](COP(=O)(O)NCCc2c[nH]c3ccccc23)[C@@H](O)[C@H]1O. Put plainly: purified protein. As to conditions: 20 mM HEPES, 1 mM MgCl2, pH 7.2, 25 °C.

For “human histidine triad nucleotide binding protein 1 (hHint1) (Homo sapiens)”, the Km (commonly the concentration of substrate that gives half-maximal velocity) is 0.13 ± 0.02 µM; the kcat – broadly, the number of substrate molecules converted per active site and unit of time at saturation – was 2.1 ± 0.1 s⁻¹; the kcat/Km (usually the turnover number divided by the Michaelis constant) is 1.5e+07 ± 3e+06 M⁻¹ s⁻¹.

Take “human histidine triad nucleotide binding protein 1 (hHint1) (Homo sapiens; H51A)”: the Km was found to be 1.8 ± 0.2 µM, the kcat stood at 0.53 ± 0.02 s⁻¹ and the kcat/Km stood at 300000 ± 40000 M⁻¹ s⁻¹.

In the case of “human histidine triad nucleotide binding protein 1 (hHint1) (Homo sapiens; H114A)”, the Km came out at 0.27 ± 0.05 µM.
